Publication PMC3149064, “Differential Calcium Signaling by Cone Specific Guanylate Cyclase-Activating Proteins from the Zebrafish Retina” (PLoS ONE, 2011)

Legend:
[1] = target: zebrafish guanylate cyclase-activating protein 1 (zebrafish (Danio rerio)); assay: SEC; analytical size exclusion chromatography (HPLC) on a BioSep-SEC S2000 column with molecular mass standards, 20 µg purified protein, run in the presence of 0.5 mM EGTA (Ca2+-free); dimer to monomers
[2] = target: the molecule itself; assay: as above

| percent dimers [1] [%] | stoichiometry N [1] | Molecule | stoichiometry N [2] |
| --- | --- | --- | --- |
| 18 | 2 | zebrafish guanylate cyclase-activating protein 1 (natural protein) |  |
|  |  | zebrafish guanylate cyclase-activating protein 7 (natural protein, zebrafish (Danio rerio), UniProt Q5MAC7 1-187, looked up, Non-myristoylated; also called zGCAP7; source: anion exchange, ammonium sulfate precipitation, SEC) MGQNQSDEEEEEVELTEIQPLYTRFMKVCPSGALHLHEFRRIFGVQSSSEEEALYMETIFKSFDTNRDNVIDFMEFVAAVHLVLRGNLEDRLKWSFKVYDRDENGKLDRQEVIHVIRILCKLKKNRINMTPVEICDRIFELLDENNDGQISLSEFLEGAEKDAWIMDLLKLDTNARVWFRDNLGKKT | 2 |
